One block for each binder: values may come before it.
Columns and labels:
SEC = molecular target: the molecule itself; assay: SEC
[1] = molecular target: full length human SLBP, unphosphorylated, untagged, co-expressed with hSLIP1 in E. coli (human, UniProt Q14493 1-270); assay: AUC
AUC = molecular target: the molecule itself; assay: AUC

B1: MIF4Gdb from Danio rerio (zebrafish orthologue of SLIP1) (natural protein, Danio rerio (zebrafish))
chain: ENSSKEDYKIQSFDLETQKLLKTALKDPGSVDLEKVSSVIVDQSLKDQVFSREAGRICYTIVQAEAKQTNGSVFRRNLLNRLQQEFKAREETRKRSTQEWVCLVSFICNIFDYLKVNNMPMVALVHPVYDCLFRLAQSDALKNEEEVDCLVLQLHRIGDQLEKMNVQLMDELFNLLRDGFLLQEDLSSMGRLLLLEILEFRAGGWKLSDTAQKYYYSEVTD
stoichiometry N (SEC): 2

Kd [1]: < 0.9 nM
B2: human SLIP1, wild type, (His)6-tagged, co-expressed with hSLBP from pRSF-Duet (natural protein, UniProt A9UHW6 1-222, looked up)
chain: MGEPSREEYKIQSFDAETQQLLKTALKDPGAVDLEKVANVIVDHSLQDCVFSKEAGRMCYAIIQAESKQAGQSVFRRGLLNRLQQEYQAREQLRARSLQGWVCYVTFICNIFDYLRVNNMPMMALVNPVYDCLFRLAQPDSLSKEEEVDCLVLQLHRVGEQLEKMNGQRMDELFVLIRDGFLLPTGLSSLAQLLLLEIIEFRAAGWKTTPAAHKYYYSEVSD

B3: R202A human SLIP1, (His)6-tagged, expressed alone from pET28a (natural protein, UniProt A9UHW6 1-222, looked up)
chain: MGEPSREEYKIQSFDAETQQLLKTALKDPGAVDLEKVANVIVDHSLQDCVFSKEAGRMCYAIIQAESKQAGQSVFRRGLLNRLQQEYQAREQLRARSLQGWVCYVTFICNIFDYLRVNNMPMMALVNPVYDCLFRLAQPDSLSKEEEVDCLVLQLHRVGEQLEKMNGQRMDELFVLIRDGFLLPTGLSSLAQLLLLEIIEFAAAGWKTTPAAHKYYYSEVSD
stoichiometry N (AUC): 2
